Where two headings read alike, the source gives them in different places.
T1: nrgEGF (amino acids Thr176-Lys246 of neuregulin-beta 1) (Homo sapiens, UniProt Q02297)
T1 construct: Thr176-Lys246 of neuregulin-beta 1; purchased R&D Sciences or SinoBiologicals
T1 sequence (Q02297 176-246 isoform Q02297-6): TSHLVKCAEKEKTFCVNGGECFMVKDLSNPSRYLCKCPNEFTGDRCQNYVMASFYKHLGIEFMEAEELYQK

T2: VEGF B (Homo sapiens, UniProt P49765)
T2 construct: purchased R&D Sciences or SinoBiologicals
T2 sequence (P49765 22-207): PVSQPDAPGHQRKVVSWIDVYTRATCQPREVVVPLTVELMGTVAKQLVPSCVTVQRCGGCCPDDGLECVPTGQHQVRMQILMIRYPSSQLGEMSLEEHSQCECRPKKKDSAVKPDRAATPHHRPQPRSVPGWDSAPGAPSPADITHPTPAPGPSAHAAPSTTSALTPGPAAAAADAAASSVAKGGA

B1: IGFBP3-v1v2-erbB4-Fc: ErbB4-GS-IGFBP3-gly 3 linker-v1v2-Fc, SEQ ID NO: 20 (protein)
chain: MSEVPVARVWLVLLLLTVQVGVTAGVQPSDSQSVCAGTENKLSSLSDLEQQYRALRKYYENCEVVMGNLEITSIEHNRDLSFLRSVREVTGYVLVALNQFRYLPLENLRIIRGTKLYEDRYALAIFLNYRKDGNFGLQELGLKNLTEILNGGVYVDQNKFLCYADTIHWQDIVRNPWPSNLTLVSTNGSSGCGRCHKSCTGRCWGPTENHCQTLTRTVGGGGSGGGGSGGGGSGGGGSGGGGGASSAGLGPVVRCEPCDARALAQCAPPPAVCAELVREPGCGCCLTCALSEGQPCGIYTERCGSGLRCQPSPDEARPLQALLDGRGLCVNASAVSKGHAKDSQRYKVDYESQSTDTQNFSSESKRETEYGPCRREMEDTLNHLKFLNVLSPRGVHIPNCDKKGFYKKKQCRPSKGRKRGFCWCVDKYGQPLPGYTTKGKEDVHCYSMQSKAPPAPGNASESEEDRSAGIYIFISDTGRPFVEMYSEIPEIIHMTEGRELVIPCRVTSPNITVTLKKFPLDTLIPDGKRIIWDSRKGFIISNATYKEIGLLTCEATVNGHLYKTNYLTHRQGYRIYDVVLSPSHGIELSVGEKLVLNCTARTELNVGIDFNWEYPSSKHQHKKLVNRDLKTQSGSEMKKFLSTLTIDGVTRSDQGLYTCAASSGLMTKKNSTFVRVHEKVECPPCPAPPVAGPSVFLFPPKPKDQLMISRTPEVTCVVVDVSHEDPEVKFNWYVDGVEVHNAKTKPREEQYNSTYRVVSVLTVLHQDWLNGKEYKCKVSNKGLPSSIEKTISKAKGQPREPQVYTLPPSREEMTKNQVSLTCLVKGFYPSDIAVEWESNGQPENNYKTTPPVLDSDGSFFLYSKLTVDKSRWQQGNVFSCSVMHEGLHNHYTQKSLSLSPGK
B2: 4142: SEQ ID NO: 24; the N-terminus only (protein)
chain: MSEVPVARVWLVLLLLTVQVGVTAGGASSAGLGPVVRCEPCDARALAQCAPPPAVCAELVREPGCGCCLTCALSEGQPCGIYTERCGSGLRCQPSPDEARPLQALLDGRGLCVNASAVSVECPPCPAPPVAGPSVFLFPPKPKDQLMISRTPEVTCVVVDVSHEDPEVKFNWYVDGVEVHNAKTKPREEQYNSTYRVVSVLTVLHQDWLNGKEYKCKVSNKGLPSSIEKTISKAKGQPREPQVYTLPPSREEMTKNQVSLTCLVKGFYPSDIAVEWESNGQPENNYKTTPPVLDSDGSFFLYSKLTVDKSRWQQGNVFSCSVMHEGLHNHYTQKSLSLSPGK
B3: 4141: SEQ ID NO: 23; a fragment comprising the N-terminus and the linker region from h3t33 (protein)
chain: MSEVPVARVWLVLLLLTVQVGVTAGGASSAGLGPVVRCEPCDARALAQCAPPPAVCAELVREPGCGCCLTCALSEGQPCGIYTERCGSGLRCQPSPDEARPLQALLDGRGLCVNASAVSKGHAKDSQRYKVDYESQSTDTQNFSSESKRETEYVECPPCPAPPVAGPSVFLFPPKPKDQLMISRTPEVTCVVVDVSHEDPEVKFNWYVDGVEVHNAKTKPREEQYNSTYRVVSVLTVLHQDWLNGKEYKCKVSNKGLPSSIEKTISKAKGQPREPQVYTLPPSREEMTKNQVSLTCLVKGFYPSDIAVEWESNGQPENNYKTTPPVLDSDGSFFLYSKLTVDKSRWQQGNVFSCSVMHEGLHNHYTQKSLSLSPGK
B4: 4382: SEQ ID NO: 25; the complete link region (protein)
chain: MSEVPVARVWLVLLLLTVQVGVTAGGASSAVNASAVSRLRAYLLPAPPAPGNASESEEDRSAGSVESPSVSSTHRVSDPKFHPLHSKIIIIKKGHAKDSQRYKVDYESQSTDTQNFSSESKREVECPPCPAPPVAGPSVFLFPPKPKDQLMISRTPEVTCVVVDVSHEDPEVKFNWYVDGVEVHNAKTKPREEQYNSTYRVVSVLTVLHQDWLNGKEYKCKVSNKGLPSSIEKTISKAKGQPREPQVYTLPPSREEMTKNQVSLTCLVKGFYPSDIAVEWESNGQPENNYKTTPPVLDSDGSFFLYSKLTVDKSRWQQGNVFSCSVMHEGLHNHYTQKSLSLSPGK

Columns and labels:
[1] = system: PC-9 non-small cell lung cancer cells; test: PC-9 subcutaneous tumors in NSG mice, daily erlotinib; assay type: in vivo; details: erlotinib alone, 25 mg/kg orally daily; day 20
Method: (§1) 5×10exp6 PC-9 non-small cell lung cancer cells were injected subcutaneously in Nod scid gamma (NSG) mice. […] Erlotinib in 6% captisol was dosed orally daily at 25 mg/kg; IGFBP3Fc (3(del3)3) was dosed intraperitoneally at 25 mg/kg three times per week; control animals were administered vehicle. Dosing was started on day 11; erlotinib and erlotinib plus D3 was discontinued on day 19; D3 injections were discontinued on day 22.

hep3B cells = test: hep3B proliferation assay; assay type: cell-based, human; details: Homo sapiens, Hep3B, FIG. 15, read-out: IC50 of erlotinib to EGFR-wildtype hep3B cells
Method: For the proliferation assay, cells except for HUVEC were seeded at a density of 1,000 to 6,000 in 96 wells in an assay buffer of DMEM/F12 plus 0.2% BSA and 10 ug/ml transferrin. Chemical inhibitors were added after 16-20 hours after plating; IGF-1 or other growth factors or test chimeras in assay buffer were added at the time of plating or 16-20 hours after plating. 5,000 HUVEC ells were plated in poly-L-lysine coated 96 wells in M199 with 1%/FBS and HEPES. After 3 to 4 days of culture, growth was determined by incubating cells with Alamar blue for 4 to 6 hours and then the fluorescence (RFU) at 544/590 nm was read. For long term proliferation assays, cells were plated in the growth media with 5% or 10% FBS at densities of 500 to 10,000 cells per cm^2 growth area and grown for 7 to 21 days. Inhibitors and effectors were added 1-4 days after plating. Cells were exposed to cisplatin or gemcitabine for two days. Medium was renewed twice weekly. At completion, cells were fixed and then stained with Giemsa.
The human hepatoma cell line hep3B could be stimulated by many growth factors including IGF-1, IGF-2, HGF, bFGF, VEGF, and neuregulin.

PC-9 tumors = test: PC-9 subcutaneous tumors in mice, low dose erlotinib; assay type: in vivo; details: erlotinib 25 mg/kg 3 times per week; FIG. 27
Method: as §1
Subcutaneous PC-9 tumors were generated and measured as above. Chimera D3 was dosed as above; erlotinib was dosed at 25 mg/kg 3 times per week in order to examine the effect of the chimera D3 on the tumor growth with suboptimal erlotinib dosing. The treatment started on day 8 and ended on day 22.

[2] = target: T1, nrgEGF (amino acids Thr176-Lys246 of neuregulin-beta 1); test: Biacore binding to nrgEGF
Method: (§2) Biacore binding was performed at David Myszka's laboratory at the University of Utah or at the Genomic Research Center at Academia Sinica. Surfaces of binding protein chimera were made via chemical immobilization on a CM4 chip using standard amine coupling chemistry. […] Excess surface carboxyl activated sites on all four flow cells was blocked using the doubly positively charged species ethylenediamine. Binding experiments (but not immobilizations) in HBS-P (10 mM HEPES pH 7.4, 150 mM NaCl, 0.05% P20), The HBS-P was supplemented with BSA at 0.2 mg/mL, or HBS-P was supplemented with 500 mM NaCl (650 mM NaCl, final concentration). Analytes were also reconstituted in the corresponding buffer. All experiments were performed at 25° C. 1/150 dilutions of phosphoric acid were used to regenerate IGFBP3-Fc surfaces and a sequence of 3 M MgCl2 followed by 5 M GuCl was used to regenerate surfaces immobilized with growth factor. Dissociation constants reported below used immobilized binding protein unless noted. Differences between binding constants may be expected between growth factor immobilization and chimera immobilization.
In this example, erbB4 domain 1 was attached to the N-terminus of the recombinant IGFBP3-Fc or the recombinant IGFBP3-v1v2-Fc.

IGF-2 = target: T3, IGF-2 (Homo sapiens, UniProt P01344); test: Biacore binding to IGF-2; set-up: key: +: sufficient to bind; −: unable to bind; details: tested in .65M NaCL
T3 construct: purchased R&D Sciences or SinoBiologicals
Method: as §2

nrgbx = test: Biacore binding to nrgbx; set-up: key: +: sufficient to bind; −: unable to bind; details: tested in .65M NaCL
Method: as §2

IGF-1 = target: T4, IGF-1 (Homo sapiens, UniProt P05019); test: Biacore binding to IGF-1; set-up: key to growth factor binding, igf1: +: sufficient to bind; −: unable to bind; details: tested in .65M NaCL
T4 construct: purchased R&D Sciences or SinoBiologicals
Method: as §2

PDGF AB = target: T5, PDGF AB (Homo sapiens, UniProt P01127+P04085); test: Biacore binding to PDGF AB; set-up: key: +: sufficient to bind; −: unable to bind; details: tested in .65M NaCL
T5 construct: purchased R&D Sciences or SinoBiologicals
Method: as §2

VEGF B = target: T2, VEGF B; test: Biacore binding to VEGF B; set-up: key: +: sufficient to bind; −: unable to bind; details: tested in .65M NaCL
Method: as §2

bFGF = target: T6, bFGF (Homo sapiens, UniProt P09038); test: Biacore binding to bFGF; set-up: key: +: sufficient to bind; −: unable to bind; details: tested in .65M NaCL
T6 construct: purchased R&D Sciences or SinoBiologicals
Method: as §2

T5 sequence (P01127 82-190 limits assumed, other chains not shown): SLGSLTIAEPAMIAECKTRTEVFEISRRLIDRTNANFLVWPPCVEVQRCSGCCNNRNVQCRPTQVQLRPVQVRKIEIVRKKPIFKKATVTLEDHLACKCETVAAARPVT
T6 sequence (P09038 143-288): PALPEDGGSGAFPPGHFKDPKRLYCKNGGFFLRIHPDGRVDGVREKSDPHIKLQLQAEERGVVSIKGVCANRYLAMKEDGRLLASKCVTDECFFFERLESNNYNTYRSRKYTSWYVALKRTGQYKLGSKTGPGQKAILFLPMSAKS
T3 sequence (P01344 25-91): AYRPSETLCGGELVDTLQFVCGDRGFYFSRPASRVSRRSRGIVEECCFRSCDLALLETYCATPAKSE
T4 sequence (P05019 49-118 limits assumed): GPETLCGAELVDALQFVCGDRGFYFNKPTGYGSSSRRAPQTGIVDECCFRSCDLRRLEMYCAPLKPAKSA

Molecule | tumor volume of treated to control (T/C) [1] | IC50 (hep3B cells; cells not treated with chimera h3t33Fc) | IC50 (hep3B cells; with the addition of 100 nM chimera h3t33Fc) | tumor regression with intermittent dosing (PC-9 tumors) | Kd [2] | growth factor binding, igf2 (IGF-2) | growth factor binding, nrgbx (nrgbx) | growth factor binding, igf1 (IGF-1) | growth factor binding, PDGF AB (PDGF AB) | growth factor binding, VEGF B (VEGF B) | growth factor binding, bFGF (bFGF)
C#Cc1cccc(Nc2ncnc3cc(OCCOC)c(OCCOC)cc23)c1 [erlotinib, reference compound] | 38% | ~10000 nM | ~100 nM | did not cause the tumor regression |  |  |  |  |  |  | 
B1 |  |  |  |  | 11 nM |  |  |  |  |  | 
B2 |  |  |  |  |  | + | − | + | − | − | −
B3 |  |  |  |  |  | + | + | + | + | + | +
B4 |  |  |  |  |  | − | − | − | − | − | −

Reference: patent US11254722B2, “Recombinant proteins and uses thereof” (ACADEMIA SINICA, priority 2017, dated 2022)
